Reference: US20180273587A1 (AILERON THERAPEUTICS, published 2018)
Positions of bridges follow the written chain, without caps; N, C: chain ends. Non-standard residues stand in square brackets, D forms with d. hCha = N[C@@H](CCC1CCCCC1)C(=O)O; hPhe = N[C@@H](CCc1ccccc1)C(=O)O; R8 = C=CCCCCCC[C@@](C)(N)C(=O)O; αMeD = C[C@](N)(CC(=O)O)C(=O)O; S5 = C=CCCC[C@](C)(N)C(=O)O

B1: SEQ ID NO: 1629 (peptide)
peptide: Ac-IWIAQELR[R8]IGDEFN[S5]YYARR-NH2
modifications: staple 9-16
SMILES: CC[C@H](C)[C@H](NC(C)=O)C(=O)N[C@@H](Cc1c[nH]c2ccccc12)C(=O)N[C@H](C(=O)N[C@@H](C)C(=O)N[C@@H](CCC(N)=O)C(=O)N[C@@H](CCC(=O)O)C(=O)N[C@@H](CC(C)C)C(=O)N[C@@H](CCCNC(=N)N)C(=O)N[C@]1(C)CCCCCCC=CCCC[C@@](C)(C(=O)N[C@@H](Cc2ccc(O)cc2)C(=O)N[C@@H](Cc2ccc(O)cc2)C(=O)N[C@@H](C)C(=O)N[C@@H](CCCNC(=N)N)C(=O)N[C@@H](CCCNC(=N)N)C(N)=O)NC(=O)[C@H](CC(N)=O)NC(=O)[C@H](Cc2ccccc2)NC(=O)[C@H](CCC(=O)O)NC(=O)[C@H](CC(=O)O)NC(=O)CNC(=O)[C@H]([C@@H](C)CC)NC1=O)[C@@H](C)CC
B2: SEQ ID NO: 1673 (peptide)
peptide: Ac-IWIAQALA[R8]IGDAFN[S5]YYA-NH2
modifications: staple 9-16
SMILES: CC[C@H](C)[C@H](NC(C)=O)C(=O)N[C@@H](Cc1c[nH]c2ccccc12)C(=O)N[C@H](C(=O)N[C@@H](C)C(=O)N[C@@H](CCC(N)=O)C(=O)N[C@@H](C)C(=O)N[C@@H](CC(C)C)C(=O)N[C@@H](C)C(=O)N[C@]1(C)CCCCCCC=CCCC[C@@](C)(C(=O)N[C@@H](Cc2ccc(O)cc2)C(=O)N[C@@H](Cc2ccc(O)cc2)C(=O)N[C@@H](C)C(N)=O)NC(=O)[C@H](CC(N)=O)NC(=O)[C@H](Cc2ccccc2)NC(=O)[C@H](C)NC(=O)[C@H](CC(=O)O)NC(=O)CNC(=O)[C@H]([C@@H](C)CC)NC1=O)[C@@H](C)CC
B3: SEQ ID NO: 1690 (peptide)
peptide: Ac-IWIAQA[hCha]R[R8]IGDAFN[S5]YYA-NH2
modifications: staple 9-16
SMILES: CC[C@H](C)[C@H](NC(C)=O)C(=O)N[C@@H](Cc1c[nH]c2ccccc12)C(=O)N[C@H](C(=O)N[C@@H](C)C(=O)N[C@@H](CCC(N)=O)C(=O)N[C@@H](C)C(=O)N[C@@H](CCC1CCCCC1)C(=O)N[C@@H](CCCNC(=N)N)C(=O)N[C@]1(C)CCCCCCC=CCCC[C@@](C)(C(=O)N[C@@H](Cc2ccc(O)cc2)C(=O)N[C@@H](Cc2ccc(O)cc2)C(=O)N[C@@H](C)C(N)=O)NC(=O)[C@H](CC(N)=O)NC(=O)[C@H](Cc2ccccc2)NC(=O)[C@H](C)NC(=O)[C@H](CC(=O)O)NC(=O)CNC(=O)[C@H]([C@@H](C)CC)NC1=O)[C@@H](C)CC
notes: also called Ac-IWIAQAhChaR$r8IGDAFN$YYA-NH2
B4: SEQ ID NO: 1692 (peptide)
peptide: Ac-IWIAQA[hPhe]R[R8]IGDAFN[S5]YYA-NH2
modifications: staple 9-16
SMILES: CC[C@H](C)[C@H](NC(C)=O)C(=O)N[C@@H](Cc1c[nH]c2ccccc12)C(=O)N[C@H](C(=O)N[C@@H](C)C(=O)N[C@@H](CCC(N)=O)C(=O)N[C@@H](C)C(=O)N[C@@H](CCc1ccccc1)C(=O)N[C@@H](CCCNC(=N)N)C(=O)N[C@]1(C)CCCCCCC=CCCC[C@@](C)(C(=O)N[C@@H](Cc2ccc(O)cc2)C(=O)N[C@@H](Cc2ccc(O)cc2)C(=O)N[C@@H](C)C(N)=O)NC(=O)[C@H](CC(N)=O)NC(=O)[C@H](Cc2ccccc2)NC(=O)[C@H](C)NC(=O)[C@H](CC(=O)O)NC(=O)CNC(=O)[C@H]([C@@H](C)CC)NC1=O)[C@@H](C)CC
notes: also called Ac-IWIAQAhFR$r8IGDAFN$YYA-NH2
B5: SEQ ID NO: 1630 (peptide)
peptide: Ac-WIAQALR[R8]IGDAFN[S5]YYA-NH2
modifications: staple 8-15
SMILES: CC[C@H](C)[C@H](NC(=O)[C@H](Cc1c[nH]c2ccccc12)NC(C)=O)C(=O)N[C@@H](C)C(=O)N[C@@H](CCC(N)=O)C(=O)N[C@@H](C)C(=O)N[C@@H](CC(C)C)C(=O)N[C@@H](CCCNC(=N)N)C(=O)N[C@]1(C)CCCCCCC=CCCC[C@@](C)(C(=O)N[C@@H](Cc2ccc(O)cc2)C(=O)N[C@@H](Cc2ccc(O)cc2)C(=O)N[C@@H](C)C(N)=O)NC(=O)[C@H](CC(N)=O)NC(=O)[C@H](Cc2ccccc2)NC(=O)[C@H](C)NC(=O)[C@H](CC(=O)O)NC(=O)CNC(=O)[C@H]([C@@H](C)CC)NC1=O
notes: also called Ac-WIAQALR$r8IGDAFN$YYA-NH2
B6: SEQ ID NO: 1688 (peptide)
peptide: Ac-IWIAQA[hhL]R[R8]IGDAFN[S5]YYA-NH2
modifications: staple 9-16
notes: also called Ac-IWIAQAhhLR$r8IGDAFN$YYA-NH2
B7: SEQ ID NO: 1635 (peptide)
peptide: Ac-IAQALR[R8]IGDAFN[S5]YYA-NH2
modifications: staple 7-14
SMILES: CC[C@H](C)[C@H](NC(C)=O)C(=O)N[C@@H](C)C(=O)N[C@@H](CCC(N)=O)C(=O)N[C@@H](C)C(=O)N[C@@H](CC(C)C)C(=O)N[C@@H](CCCNC(=N)N)C(=O)N[C@]1(C)CCCCCCC=CCCC[C@@](C)(C(=O)N[C@@H](Cc2ccc(O)cc2)C(=O)N[C@@H](Cc2ccc(O)cc2)C(=O)N[C@@H](C)C(N)=O)NC(=O)[C@H](CC(N)=O)NC(=O)[C@H](Cc2ccccc2)NC(=O)[C@H](C)NC(=O)[C@H](CC(=O)O)NC(=O)CNC(=O)[C@H]([C@@H](C)CC)NC1=O
notes: also called Ac-IAQALR$r8IGDAFN$YYA-NH2
B8: SEQ ID NO: 1631 (peptide)
peptide: Ac-IAQALR[R8]IGDAFA[S5]YYA-NH2
modifications: staple 7-14
SMILES: CC[C@H](C)[C@H](NC(C)=O)C(=O)N[C@@H](C)C(=O)N[C@@H](CCC(N)=O)C(=O)N[C@@H](C)C(=O)N[C@@H](CC(C)C)C(=O)N[C@@H](CCCNC(=N)N)C(=O)N[C@]1(C)CCCCCCC=CCCC[C@@](C)(C(=O)N[C@@H](Cc2ccc(O)cc2)C(=O)N[C@@H](Cc2ccc(O)cc2)C(=O)N[C@@H](C)C(N)=O)NC(=O)[C@H](C)NC(=O)[C@H](Cc2ccccc2)NC(=O)[C@H](C)NC(=O)[C@H](CC(=O)O)NC(=O)CNC(=O)[C@H]([C@@H](C)CC)NC1=O
notes: also called Ac-IAQALR$r8IGDAFA$YYA-NH2
B9: SEQ ID NO: 1636 (peptide)
peptide: Ac-IAAALR[R8]IGDAFN[S5]YYA-NH2
modifications: staple 7-14
SMILES: CC[C@H](C)[C@H](NC(C)=O)C(=O)N[C@@H](C)C(=O)N[C@@H](C)C(=O)N[C@@H](C)C(=O)N[C@@H](CC(C)C)C(=O)N[C@@H](CCCNC(=N)N)C(=O)N[C@]1(C)CCCCCCC=CCCC[C@@](C)(C(=O)N[C@@H](Cc2ccc(O)cc2)C(=O)N[C@@H](Cc2ccc(O)cc2)C(=O)N[C@@H](C)C(N)=O)NC(=O)[C@H](CC(N)=O)NC(=O)[C@H](Cc2ccccc2)NC(=O)[C@H](C)NC(=O)[C@H](CC(=O)O)NC(=O)CNC(=O)[C@H]([C@@H](C)CC)NC1=O
notes: also called Ac-IAAALR$r8IGDAFN$YYA-NH2
B10: SEQ ID NO: 1638 (peptide)
peptide: Ac-IAQALR[R8]IADAFN[S5]YYA-NH2
modifications: staple 7-14
SMILES: CC[C@H](C)[C@H](NC(C)=O)C(=O)N[C@@H](C)C(=O)N[C@@H](CCC(N)=O)C(=O)N[C@@H](C)C(=O)N[C@@H](CC(C)C)C(=O)N[C@@H](CCCNC(=N)N)C(=O)N[C@]1(C)CCCCCCC=CCCC[C@@](C)(C(=O)N[C@@H](Cc2ccc(O)cc2)C(=O)N[C@@H](Cc2ccc(O)cc2)C(=O)N[C@@H](C)C(N)=O)NC(=O)[C@H](CC(N)=O)NC(=O)[C@H](Cc2ccccc2)NC(=O)[C@H](C)NC(=O)[C@H](CC(=O)O)NC(=O)[C@H](C)NC(=O)[C@H]([C@@H](C)CC)NC1=O
notes: also called Ac-IAQALR$r8IADAFN$YYA-NH2
B11: SEQ ID NO: 1640 (peptide)
peptide: Ac-IAQALR[R8]IGDAFN[S5]AYA-NH2
modifications: staple 7-14
SMILES: CC[C@H](C)[C@H](NC(C)=O)C(=O)N[C@@H](C)C(=O)N[C@@H](CCC(N)=O)C(=O)N[C@@H](C)C(=O)N[C@@H](CC(C)C)C(=O)N[C@@H](CCCNC(=N)N)C(=O)N[C@]1(C)CCCCCCC=CCCC[C@@](C)(C(=O)N[C@@H](C)C(=O)N[C@@H](Cc2ccc(O)cc2)C(=O)N[C@@H](C)C(N)=O)NC(=O)[C@H](CC(N)=O)NC(=O)[C@H](Cc2ccccc2)NC(=O)[C@H](C)NC(=O)[C@H](CC(=O)O)NC(=O)CNC(=O)[C@H]([C@@H](C)CC)NC1=O
notes: also called Ac-IAQALR$r8IGDAFN$AYA-NH2
B12: SEQ ID NO: 1709 (peptide)
peptide: Ac-IWIAQALR[R8]IG[αMeD]AFN[S5]YYA-NH2
modifications: staple 9-16
SMILES: CC[C@H](C)[C@H](NC(C)=O)C(=O)N[C@@H](Cc1c[nH]c2ccccc12)C(=O)N[C@H](C(=O)N[C@@H](C)C(=O)N[C@@H](CCC(N)=O)C(=O)N[C@@H](C)C(=O)N[C@@H](CC(C)C)C(=O)N[C@@H](CCCNC(=N)N)C(=O)N[C@]1(C)CCCCCCC=CCCC[C@@](C)(C(=O)N[C@@H](Cc2ccc(O)cc2)C(=O)N[C@@H](Cc2ccc(O)cc2)C(=O)N[C@@H](C)C(N)=O)NC(=O)[C@H](CC(N)=O)NC(=O)[C@H](Cc2ccccc2)NC(=O)[C@H](C)NC(=O)[C@](C)(CC(=O)O)NC(=O)CNC(=O)[C@H]([C@@H](C)CC)NC1=O)[C@@H](C)CC
B13: SEQ ID NO: 1634 (peptide)
peptide: Ac-WIAQALR[R8]IGDAFN[S5]YYA-NH2
modifications: staple 8-15
SMILES: CC[C@H](C)[C@H](NC(=O)[C@H](Cc1c[nH]c2ccccc12)NC(C)=O)C(=O)N[C@@H](C)C(=O)N[C@@H](CCC(N)=O)C(=O)N[C@@H](C)C(=O)N[C@@H](CC(C)C)C(=O)N[C@@H](CCCNC(=N)N)C(=O)N[C@]1(C)CCCCCCC=CCCC[C@@](C)(C(=O)N[C@@H](Cc2ccc(O)cc2)C(=O)N[C@@H](Cc2ccc(O)cc2)C(=O)N[C@@H](C)C(N)=O)NC(=O)[C@H](CC(N)=O)NC(=O)[C@H](Cc2ccccc2)NC(=O)[C@H](C)NC(=O)[C@H](CC(=O)O)NC(=O)CNC(=O)[C@H]([C@@H](C)CC)NC1=O
notes: as for B5
B14: SEQ ID NO: 1656 (peptide)
peptide: IWIAQALXAIGDQFNAYYA
modifications: not fully specified; Ac- at N-terminus; -NH2 at C-terminus; $r8 at 9 and $ at 16 joined by all-carbon crosslinker; Cit (citrulline) at 8

Experiments:
Assay in all cases: Ki table, method not stated
BCL-XL = BCL-XL (UniProt Q07817 1-209)
BCL-2 = BCL-2 (UniProt P10415 1-217, limits assumed)
MCL-1 = target: T1, MCL-1 (UniProt Q07820 172-327, limits assumed)
T1 construct: also called Myeloid cell leukemia 1
T1 sequence (Q07820 172-327 limits assumed): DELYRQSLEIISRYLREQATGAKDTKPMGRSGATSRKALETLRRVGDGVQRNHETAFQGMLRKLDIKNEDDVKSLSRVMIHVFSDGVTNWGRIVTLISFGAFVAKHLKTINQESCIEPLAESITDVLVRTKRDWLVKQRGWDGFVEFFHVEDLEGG

Chain of BCL-XL (Q07817 1-209): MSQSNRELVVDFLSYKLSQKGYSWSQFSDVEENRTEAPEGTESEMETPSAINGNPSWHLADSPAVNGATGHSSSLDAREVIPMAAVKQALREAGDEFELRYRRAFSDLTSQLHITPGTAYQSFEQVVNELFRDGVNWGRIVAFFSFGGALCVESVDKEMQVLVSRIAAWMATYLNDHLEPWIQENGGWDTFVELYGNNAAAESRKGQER
Chain of BCL-2 (P10415 1-217 limits assumed): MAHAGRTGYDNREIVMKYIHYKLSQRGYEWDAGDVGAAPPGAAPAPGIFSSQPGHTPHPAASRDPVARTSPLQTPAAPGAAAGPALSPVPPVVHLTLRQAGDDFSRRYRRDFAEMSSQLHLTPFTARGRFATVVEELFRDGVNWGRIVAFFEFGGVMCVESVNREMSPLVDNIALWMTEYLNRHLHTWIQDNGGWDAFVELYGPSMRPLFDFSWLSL

Binder | Ki (BCL-XL) [nM] | Ki (BCL-2) [nM] | Ki (MCL-1) [nM]
B1 | 9.2 | 23.5 | –
B2 | 386 | – | 73.8
B3 | – | – | 3.8
B4 | – | – | 7.5
B5 | 213 | 424 | –
B6 | 136 | 231 | –
B7 | 309 | 519 | –
B8 | 374 | 878 | –
B9 | 256 | 319 | –
B10 | 243 | 272 | –
B11 | 472 | 804 | –
B12 | 15.5 | – | –
B13 | – | 410 | –
B14 | 28.8 | 88.2 | –
